The results in this text go back to the supplement of paper PMC12855868.

B1: library; numbered along this chain (parent)
chain: MAAAGGARLLRAASAVLGGPAGRWLHHAGSRAGSSGLLRNRGPGGSAEASRSLSVSARARSSSEDKITVHFINRDGETLTTKGKVGDSLLDVVVENNLDIDGFGACEGTLACSTCHLIFEDHIYEKLDAITDEENDMLDLAYGLTDRSRLGCQICLTKSMDNMTVRVPETVADARQSIDVGKTS

Variants of B1 are the subject of this data set. Put plainly: scaled log2 fold change in cell abundance, elesclomol vs control (0 = silent mean, 1 = nonsense mean) (scaled log2 ratio); higher = higher viability under elesclomol (loss of FDX1 cuproptosis function). As to conditions: glucose 10 mM. On the procedure: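 Deep mutational scan of full-length human FDX1: a pooled saturation-mutagenesis ORF library (every residue 2-184 mutated to all 19 amino acids plus stop, and silent codons where available) was expressed by lentivirus in FDX1-knockout ABC1 (14 days) or HEK293T (11 days) cells grown with elesclomol (ES) or DMSO control. Variant abundance came from ORF sequencing. The log2 fold change (ES vs control, mean of duplicates) was centred on the silent-variant mean (0) and scaled to the nonsense-variant mean (1). Higher values mean greater viability under ES, i.e. loss of FDX1 function in cuproptosis.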

The mark [1] stands for this setting: with ABC1 FDX1 KO, elesclomol 5 nM, 14 days.
[2] abbreviates: with HEK293T FDX1 KO, elesclomol 40 nM, 11 days.
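Further: variant abundance is its share of total variant reads in each endpoint sample, from next-generation sequencing of the integrated ORF PCR-amplified out of genomic DNA.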

Consider MAAAGGARLLRAASAVLGGPAGRNLHHAGSRAGSSGLLRNRGPGGSAEASRSLSVSARARSSSEDKITVHFINRDGETLTTKGKVGDSLLDVVVENNLDIDGFGACEGTLACSTCHLIFEDHIYEKLDAITDEENDMLDLAYGLTDRSRLGCQICLTKSMDNMTVRVPETVADARQSIDVGKTS [W24N], for which the “scaled log2 fold change” value by setting is: under setting [1], -0.222; under setting [2], 0.318.

For the variant MAAAGGARLLRAASAVLGGPAGRILHHAGSRAGSSGLLRNRGPGGSAEASRSLSVSARARSSSEDKITVHFINRDGETLTTKGKVGDSLLDVVVENNLDIDGFGACEGTLACSTCHLIFEDHIYEKLDAITDEENDMLDLAYGLTDRSRLGCQICLTKSMDNMTVRVPETVADARQSIDVGKTS [W24I], under setting [1], the “scaled log2 fold change” value was -0.0623.

As for MAAAGGARLLRAASAVLGGPAGRELHHAGSRAGSSGLLRNRGPGGSAEASRSLSVSARARSSSEDKITVHFINRDGETLTTKGKVGDSLLDVVVENNLDIDGFGACEGTLACSTCHLIFEDHIYEKLDAITDEENDMLDLAYGLTDRSRLGCQICLTKSMDNMTVRVPETVADARQSIDVGKTS [W24E], the “scaled log2 fold change” value runs as follows: under setting [1], 0.458; under setting [2], -0.438. For the variant MAAAGGARLLRAASAVLGGPAGRCLHHAGSRAGSSGLLRNRGPGGSAEASRSLSVSARARSSSEDKITVHFINRDGETLTTKGKVGDSLLDVVVENNLDIDGFGACEGTLACSTCHLIFEDHIYEKLDAITDEENDMLDLAYGLTDRSRLGCQICLTKSMDNMTVRVPETVADARQSIDVGKTS [W24C], the “scaled log2 fold change” value is 0.00637 under setting [1] and -0.0787 under setting [2]. The matching figures for MAAAGGARLLRAASAVLGGPAGRKLHHAGSRAGSSGLLRNRGPGGSAEASRSLSVSARARSSSEDKITVHFINRDGETLTTKGKVGDSLLDVVVENNLDIDGFGACEGTLACSTCHLIFEDHIYEKLDAITDEENDMLDLAYGLTDRSRLGCQICLTKSMDNMTVRVPETVADARQSIDVGKTS [W24K]: -0.318 and -0.743. As for MAAAGGARLLRAASAVLGGPAGRMLHHAGSRAGSSGLLRNRGPGGSAEASRSLSVSARARSSSEDKITVHFINRDGETLTTKGKVGDSLLDVVVENNLDIDGFGACEGTLACSTCHLIFEDHIYEKLDAITDEENDMLDLAYGLTDRSRLGCQICLTKSMDNMTVRVPETVADARQSIDVGKTS [W24M], the “scaled log2 fold change” value runs as follows: under setting [1], 0.24; under setting [2], -0.653. In the same order, the values of MAAAGGARLLRAASAVLGGPAGRQLHHAGSRAGSSGLLRNRGPGGSAEASRSLSVSARARSSSEDKITVHFINRDGETLTTKGKVGDSLLDVVVENNLDIDGFGACEGTLACSTCHLIFEDHIYEKLDAITDEENDMLDLAYGLTDRSRLGCQICLTKSMDNMTVRVPETVADARQSIDVGKTS [W24Q] are -0.175 and 0.364.

With MAAAGGARLLRAASAVLGGPAGRFLHHAGSRAGSSGLLRNRGPGGSAEASRSLSVSARARSSSEDKITVHFINRDGETLTTKGKVGDSLLDVVVENNLDIDGFGACEGTLACSTCHLIFEDHIYEKLDAITDEENDMLDLAYGLTDRSRLGCQICLTKSMDNMTVRVPETVADARQSIDVGKTS [W24F], the “scaled log2 fold change” value worked out at 0.286 under setting [1] and 0.448 under setting [2]. Turning to MAAAGGARLLRAASAVLGGPAGRLLHHAGSRAGSSGLLRNRGPGGSAEASRSLSVSARARSSSEDKITVHFINRDGETLTTKGKVGDSLLDVVVENNLDIDGFGACEGTLACSTCHLIFEDHIYEKLDAITDEENDMLDLAYGLTDRSRLGCQICLTKSMDNMTVRVPETVADARQSIDVGKTS [W24L], the “scaled log2 fold change” value under setting [1] amounted to 0.45. With MAAAGGARLLRAASAVLGGPAGRHLHHAGSRAGSSGLLRNRGPGGSAEASRSLSVSARARSSSEDKITVHFINRDGETLTTKGKVGDSLLDVVVENNLDIDGFGACEGTLACSTCHLIFEDHIYEKLDAITDEENDMLDLAYGLTDRSRLGCQICLTKSMDNMTVRVPETVADARQSIDVGKTS [W24H], the “scaled log2 fold change” value was 0.42 under setting [1] and -0.545 under setting [2]. Turning to MAAAGGARLLRAASAVLGGPAGQWLHHAGSRAGSSGLLRNRGPGGSAEASRSLSVSARARSSSEDKITVHFINRDGETLTTKGKVGDSLLDVVVENNLDIDGFGACEGTLACSTCHLIFEDHIYEKLDAITDEENDMLDLAYGLTDRSRLGCQICLTKSMDNMTVRVPETVADARQSIDVGKTS [R23Q], the “scaled log2 fold change” value under setting [1] is 0.00392. Turning to MAAAGGARLLRAASAVLGGPAGMWLHHAGSRAGSSGLLRNRGPGGSAEASRSLSVSARARSSSEDKITVHFINRDGETLTTKGKVGDSLLDVVVENNLDIDGFGACEGTLACSTCHLIFEDHIYEKLDAITDEENDMLDLAYGLTDRSRLGCQICLTKSMDNMTVRVPETVADARQSIDVGKTS [R23M], the “scaled log2 fold change” value under setting [1] was 0.474 and the “scaled log2 fold change” value under setting [2] is -0.139. For the variant MAAAGGARLLRAASAVLGGPAGWWLHHAGSRAGSSGLLRNRGPGGSAEASRSLSVSARARSSSEDKITVHFINRDGETLTTKGKVGDSLLDVVVENNLDIDGFGACEGTLACSTCHLIFEDHIYEKLDAITDEENDMLDLAYGLTDRSRLGCQICLTKSMDNMTVRVPETVADARQSIDVGKTS [R23W], the “scaled log2 fold change” value came out at 0.348 under setting [1] and 0.553 under setting [2]. Take MAAAGGARLLRAASAVLGGPAGKWLHHAGSRAGSSGLLRNRGPGGSAEASRSLSVSARARSSSEDKITVHFINRDGETLTTKGKVGDSLLDVVVENNLDIDGFGACEGTLACSTCHLIFEDHIYEKLDAITDEENDMLDLAYGLTDRSRLGCQICLTKSMDNMTVRVPETVADARQSIDVGKTS [R23K]: the “scaled log2 fold change” value under setting [1] is 0.498. As to MAAAGGARLLRAASAVLGGPAGPWLHHAGSRAGSSGLLRNRGPGGSAEASRSLSVSARARSSSEDKITVHFINRDGETLTTKGKVGDSLLDVVVENNLDIDGFGACEGTLACSTCHLIFEDHIYEKLDAITDEENDMLDLAYGLTDRSRLGCQICLTKSMDNMTVRVPETVADARQSIDVGKTS [R23P], the “scaled log2 fold change” value reads like this: under setting [1], -0.138; under setting [2], 0.465. Take MAAAGGARLLRAASAVLGGPAGSWLHHAGSRAGSSGLLRNRGPGGSAEASRSLSVSARARSSSEDKITVHFINRDGETLTTKGKVGDSLLDVVVENNLDIDGFGACEGTLACSTCHLIFEDHIYEKLDAITDEENDMLDLAYGLTDRSRLGCQICLTKSMDNMTVRVPETVADARQSIDVGKTS [R23S]: under setting [1], the “scaled log2 fold change” value is -0.477. As to MAAAGGARLLRAASAVLGGPAGTWLHHAGSRAGSSGLLRNRGPGGSAEASRSLSVSARARSSSEDKITVHFINRDGETLTTKGKVGDSLLDVVVENNLDIDGFGACEGTLACSTCHLIFEDHIYEKLDAITDEENDMLDLAYGLTDRSRLGCQICLTKSMDNMTVRVPETVADARQSIDVGKTS [R23T], the “scaled log2 fold change” value reads like this: under setting [1], -0.164; under setting [2], -0.141.

MAAAGGARLLRAASAVLGGPAGNWLHHAGSRAGSSGLLRNRGPGGSAEASRSLSVSARARSSSEDKITVHFINRDGETLTTKGKVGDSLLDVVVENNLDIDGFGACEGTLACSTCHLIFEDHIYEKLDAITDEENDMLDLAYGLTDRSRLGCQICLTKSMDNMTVRVPETVADARQSIDVGKTS [R23N]: the “scaled log2 fold change” value under setting [1] was determined as 0.598 and the “scaled log2 fold change” value under setting [2] was -0.335. Take MAAAGGARLLRAASAVLGGPAGYWLHHAGSRAGSSGLLRNRGPGGSAEASRSLSVSARARSSSEDKITVHFINRDGETLTTKGKVGDSLLDVVVENNLDIDGFGACEGTLACSTCHLIFEDHIYEKLDAITDEENDMLDLAYGLTDRSRLGCQICLTKSMDNMTVRVPETVADARQSIDVGKTS [R23Y]: the “scaled log2 fold change” value under setting [1] is -0.603.
